Results as given in doi:10.1101/2020.01.12.903617, “The peptide sensor motif stabilizes the outward-facing conformation of TmrAB” (bioRxiv, 2020).

T1: TmrA C416S/L290C (chain of the double cysteine mutant of cysteine-less WT TmrAB) (Thermus thermophilus, UniProt Q72J05 1-600, C416S | L290C)
T1 construct: TmrA, Thermus thermophilus, the chain of TmrAB with the canonical Walker B motif; Cysteine-less template made by GenScript; co-expressed with the TmrB chain; also called C416S^TmrA/L290C^TmrA
T1 sequence: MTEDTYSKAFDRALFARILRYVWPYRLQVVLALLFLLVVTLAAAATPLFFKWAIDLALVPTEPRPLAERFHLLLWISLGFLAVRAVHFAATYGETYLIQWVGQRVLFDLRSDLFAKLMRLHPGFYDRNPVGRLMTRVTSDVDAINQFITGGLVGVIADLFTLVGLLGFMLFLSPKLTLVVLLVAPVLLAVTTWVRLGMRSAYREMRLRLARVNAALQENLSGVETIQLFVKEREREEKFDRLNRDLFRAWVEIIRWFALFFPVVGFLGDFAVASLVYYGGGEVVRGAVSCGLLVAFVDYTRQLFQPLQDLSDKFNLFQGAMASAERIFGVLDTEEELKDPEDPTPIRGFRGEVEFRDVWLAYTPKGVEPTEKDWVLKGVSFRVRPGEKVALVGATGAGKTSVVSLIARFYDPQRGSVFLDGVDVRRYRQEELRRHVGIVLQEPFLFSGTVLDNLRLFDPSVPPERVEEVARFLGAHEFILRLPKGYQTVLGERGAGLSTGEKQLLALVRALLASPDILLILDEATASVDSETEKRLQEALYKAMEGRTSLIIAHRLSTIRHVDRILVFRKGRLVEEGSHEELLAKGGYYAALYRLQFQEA

T2: TmrA G131A/C416S/L290C (chain of the double cysteine mutant of G131A^TmrA TmrAB) (Thermus thermophilus, UniProt Q72J05 1-600, G131A | C416S | L290C)
T2 construct: TmrA, Thermus thermophilus, the chain of TmrAB with the canonical Walker B motif; Cysteine-less template made by GenScript; co-expressed with TmrB V275C; also called PSM glycine mutant
T2 sequence: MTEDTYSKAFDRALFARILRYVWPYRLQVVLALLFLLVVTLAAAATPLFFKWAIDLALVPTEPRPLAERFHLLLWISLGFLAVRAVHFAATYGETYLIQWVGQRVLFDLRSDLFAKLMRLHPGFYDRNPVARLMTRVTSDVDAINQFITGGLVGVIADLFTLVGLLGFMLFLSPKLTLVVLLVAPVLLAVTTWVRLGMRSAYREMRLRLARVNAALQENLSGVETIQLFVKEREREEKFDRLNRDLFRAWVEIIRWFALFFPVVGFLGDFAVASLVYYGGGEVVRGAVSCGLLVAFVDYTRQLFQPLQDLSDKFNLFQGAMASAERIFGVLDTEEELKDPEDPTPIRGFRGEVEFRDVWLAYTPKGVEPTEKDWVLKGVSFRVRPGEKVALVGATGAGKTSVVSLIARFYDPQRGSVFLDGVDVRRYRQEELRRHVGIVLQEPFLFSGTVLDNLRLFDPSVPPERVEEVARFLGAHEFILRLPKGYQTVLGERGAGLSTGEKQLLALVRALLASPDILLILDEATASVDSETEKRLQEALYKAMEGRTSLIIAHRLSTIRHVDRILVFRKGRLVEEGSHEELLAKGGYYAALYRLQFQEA


Tests used:
[1] = molecular target: T1, TmrA C416S/L290C (chain of the double …); test: cross-linking; disulfide cross-linking of engineered cysteines: 1 uM TmrAB double cysteine mutants in SEC buffer, 0.5 mM copper phenanthroline, 68°C, without or with 5 mM ATP, 10 mM MgCl2 and/or 8 mM sodium orthovanadate; SDS-PAGE, ~150 kDa band of the cross-linked dimer; details: both partners purified
[2] = molecular target: T2, TmrA G131A/C416S/L290C (chain of the …); test: as above; details: both partners purified

Row | binding result [1] | binding result [2] | Binder
1 | binds | – | TmrB G116A/V275C (chain of the double cysteine mutant of G116A^TmrB TmrAB) (natural protein, Thermus thermophilus, TmrB, Thermus thermophilus, the chain of TmrAB with the non-canonical Walker B motif; Co-expressed with TmrA C416S/L290C; The cloning paragraph prints G116A^TmrA, all other places G116A^TmrB; also called PSM glycine mutant) MTGRSAAPLLRRLWPYVGRYRWRYLWAVLAGLVSIFFFVLTPYFLRLAVDAVQAGRGFGVYALAIVASAALSGLLSYAMRRLAVVASRQVEYDLRRDLLHHLLTLDRDFYHKHRVADLMNRLNTDLSAVREMVGPGILMGSRLSFLVLLAFLSMYAVNARLAFYLTLILPGIFLAMRFLLRLIDRRYREAQEVFDRISTLAQEAFSGIRVVKGYALERRMVAWFQDLNRLYVEKSLALARVEGPLHALLGFLMGFAFLTVLWAGGAMVVRGELSCGELVQFNAYLAQLTWPILGLGWVMALYQRGLTSLRRLFELLDEKPAIRDEDPLPLALEDLSGEVRFEGVGLKRDGRWLLRGLTLTIPEGMTLGITGRTGSGKSLLAALVPRLLDPSEGRVYVGGHEARRIPLAVLRKAVGVAPQEPFLFSETILENIAFGLDEVDRERVEWAARLAGIHEEILAFPKGYETVLGERGITLSGGQRQRVALARALAKRPKILILDDALSAVDAETEARILQGLKTVLGKQTTLLISHRTAALRHADWIIVLDGGRIVEEGTHESLLQAGGLYAEMDRLQKEVEA
2 | binds | binds | TmrB V275C (chain of the double cysteine mutant of cysteine-less WT TmrAB) (natural protein, Thermus thermophilus, TmrB, Thermus thermophilus, the chain of TmrAB with the non-canonical Walker B motif; Co-expressed with the TmrA chain; also called V275C^TmrB) MTGRSAAPLLRRLWPYVGRYRWRYLWAVLAGLVSIFFFVLTPYFLRLAVDAVQAGRGFGVYALAIVASAALSGLLSYAMRRLAVVASRQVEYDLRRDLLHHLLTLDRDFYHKHRVGDLMNRLNTDLSAVREMVGPGILMGSRLSFLVLLAFLSMYAVNARLAFYLTLILPGIFLAMRFLLRLIDRRYREAQEVFDRISTLAQEAFSGIRVVKGYALERRMVAWFQDLNRLYVEKSLALARVEGPLHALLGFLMGFAFLTVLWAGGAMVVRGELSCGELVQFNAYLAQLTWPILGLGWVMALYQRGLTSLRRLFELLDEKPAIRDEDPLPLALEDLSGEVRFEGVGLKRDGRWLLRGLTLTIPEGMTLGITGRTGSGKSLLAALVPRLLDPSEGRVYVGGHEARRIPLAVLRKAVGVAPQEPFLFSETILENIAFGLDEVDRERVEWAARLAGIHEEILAFPKGYETVLGERGITLSGGQRQRVALARALAKRPKILILDDALSAVDAETEARILQGLKTVLGKQTTLLISHRTAALRHADWIIVLDGGRIVEEGTHESLLQAGGLYAEMDRLQKEVEA
